Test results from US20040180342, “Multimers of S. solfataricus single-stranded DNA-binding protein and methods of use thereof” (REGENTS OF THE UNIVERSITY OF CALIFORNIA, published 2004).

T1: SsoSSB (S. solfataricus SSB, SSO2364) (Sulfolobus solfataricus, UniProt Q97W73 SEQ:1-148)
T1 sequence: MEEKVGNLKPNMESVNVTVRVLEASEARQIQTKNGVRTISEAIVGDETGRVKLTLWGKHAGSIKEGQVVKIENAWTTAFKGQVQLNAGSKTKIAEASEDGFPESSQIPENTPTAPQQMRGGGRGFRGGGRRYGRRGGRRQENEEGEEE


How the values were obtained:
[1] = biological target: T1, SsoSSB (S. solfataricus SSB, SSO2364); experiment: competition; conditions: linear pUC19 at 100-fold molar (nucleotide) excess did not alter shift of 63-mer; 75 C
[2] = biological target: T1, SsoSSB (S. solfataricus SSB, SSO2364); experiment: EMSA; 10 uM nucleotides, constant mobility reached at 2 uM protein; saturation about 1 SSB per 5 nt; non-cooperative; 75 C, 30 mM Tris OAc pH 7.5, 10 mM MgOAc2, 5 mM; conditions: tags: untagged, expressed from pET21a in E. coli, heat treated at 80 C; chain copies: 4 (tetramer main form in solution; dimer and monomer also present); label: 5'-32P (T4 polynucleotide kinase end label)
Description: To determine the occluded binding site size of the protein and to evaluate the activity of the SsoSSB protein, we performed acrylamide gel mobility-shift assays with a radioactively labeled single-stranded oligonucleotide that was 63 nucleotides in length (FIG. 5). When a fixed quantity of radiolabeled oligonucleotide was incubated with increasing quantities of protein, a band of reduced mobility was observed. The apparent mobility further decreased upon addition of more protein, finally achieving a constant mobility after the addition of 2 μM protein. The absence of discrete species implied rapid equilibration between bound and free forms of the complexes, and consistent with this possibility, more discrete species were visualized when electrophoresis was performed more rapidly (at high voltage). […] The M. jannaschii RPA protein has a site size of 15 to 20 nucleotides (Kelly, T. J. et al., Proc Natl Acad Sci USA 95:14634-14639 (1998)) whereas the site size of E. coli SSB protein, depending on solution conditions, varies from 8 to 16 nucleotides per monomer. The apparent site size of SsoSSB protein is similar to the 7 nucleotide site size observed for phage T4 SSB protein, gp32. […] The observed band-retardation pattern is likely the result of a combination of this non-cooperative binding and rapid equilibration of protein-DNA complexes during electrophoresis.

Row | Molecule | fold lower affinity than ssDNA (competition) (fold lower affinity than ssDNA) [1] | binding result [2]
1 | linearized pUC19 | > 100 | –
2 | 63-mer oligonucleotide (ssDNA) DNA: ACAGCACCAATGAAATCTATTAAGCTCCTCATCGTCCGCAAAAATATCGTCACCTCAAAAGGA | – | binds
